The source of these data is US20110150895A1 (SAMSUNG ELECTRONICS, published 2011).

For test [1], the target named is T1, recombinant hAng-2 (a recombinant human angiopoietin-2 protein with an attached His tag; R&D Systems) (human, UniProt O15123 19-496).
T1 construct: Bought reagent; not shown: His tag
T1 sequence (looked up): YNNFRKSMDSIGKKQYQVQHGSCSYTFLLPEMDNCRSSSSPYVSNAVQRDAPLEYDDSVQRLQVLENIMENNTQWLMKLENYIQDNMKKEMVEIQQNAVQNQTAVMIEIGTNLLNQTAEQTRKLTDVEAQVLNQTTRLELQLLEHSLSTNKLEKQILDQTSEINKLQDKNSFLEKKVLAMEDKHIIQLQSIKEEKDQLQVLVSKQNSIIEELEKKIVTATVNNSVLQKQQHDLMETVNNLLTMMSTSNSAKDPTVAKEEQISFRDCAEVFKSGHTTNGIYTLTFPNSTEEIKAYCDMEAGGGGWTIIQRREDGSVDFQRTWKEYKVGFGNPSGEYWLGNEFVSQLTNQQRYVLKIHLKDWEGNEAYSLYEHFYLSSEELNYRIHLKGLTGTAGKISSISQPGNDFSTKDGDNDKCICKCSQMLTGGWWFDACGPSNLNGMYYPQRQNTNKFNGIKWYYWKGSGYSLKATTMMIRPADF
Kind of test: competitive ELISA: inhibition of 1 nM hAng-2 binding to coated hTie2-Fc. On the procedure:
A 96-well MaxiSorp™ flat-bottom plate (Nunc) was coated with recombinant human Tie2-Fc (hTie2-Fc) (R&D Systems, Inc.) dissolved in DMEM culture containing 50 μg/ml bovine serum albumin (BSA). The hTie-2Fc is a chimeric protein including the water-soluble extracellular region of human Tie-2 and the Fc fragment of human IgG₁. The concentration of hTie2-Fc immobilized was equivalent to 75% of its maximum binding concentration with 1 nM of recombinant hAng-2 (a recombinant human angiopoietin-2 protein with an attached His tag; R&D Systems). The plate was washed with Phosphate Buffered Saline (PBS) containing 0.1% TWEEN-20 five times and blocked with PBS containing 5% BSA at room temperature for two hours. To perform an ELISA experiment for determining whether binding between angiopoietin-2 and Tie-2 was neutralized, each of the monoclonal antibodies SAIT-Ang-2-5 and SAIT-Ang-2-6 prepared according to Example 1 were serially diluted from 100 nM by one-fourth each time with PBS containing 1% BSA and 1 nM hAng-2 and adjusted to a concentration of 6.1 pM. […] The OD₄₅₀ value was read on a plate reader (Molecular Devices). […] Based on the results, each of the monoclonal antibodies SAIT-Ang-2-5 and SAIT-Ang-2-6 of Example 1 was determined to be capable of neutralizing binding between angiopoietin-2 and Tie-2 (refer to Table 1).
On the technique in general: ELISA stands for enzyme-linked immunosorbent assay.

The target of test [2] is T1, recombinant hAng-2 (a recombinant human …). Nature of the test: SPR (BIAcore T100), hAng-2 amine-coupled on CM5 chip, antibody as analyte. On the procedure:
The affinity of each of the monoclonal antibodies SAIT-Ang-2-5 and SAIT-Ang-2-6 of Example 1 to angiopoietin-2 was measured using a surface plasmon resonance (SPR) device (BIAcore T100, GE Healthcare). 20 μg/ml recombinant hAng-2 (R&D Systems) was immobilized on a CM5 chip (GE Healthcare) using a pH 4.5 acetate solution and an amine coupling kit (GE Healthcare). Each of the monoclonal antibodies SAIT-Ang-2-5 and SAIT-Ang-2-6 of Example 1 was diluted to eight different concentrations down to 0.78125 nM by serially diluting to ½ each time starting from 100 nM. Then, the antigen/antibody affinity was measured by binding each antibody with the antigen immobilized on the CM5 chip and dissociating the antigen from the antibody using a pH2.2 glycine-HCl solution. […] From the results, the affinity of each monoclonal antibody SAIT-Ang-2-5 and SAIT-Ang-2-6 of Example 1 to angiopoietin-2 was determined.
In general terms: In SPR one partner is held on a chip, and binding of the other changes the refractive index at the surface.

B1: Monoclonal antibody SAIT-Ang-2-5 (antibody, V domains shown)
VH: DVQLVESGGGLAQPGGSRKLSCAASGFTFSNFGMHWVRQAPEKGLDWVAYISSGSDTIYYADTVKGRFTISRDNPKNTLFLQMTSLRSEDTAMYYCARESTMITMGYVLDYWGQGTSVTVSS
VL: DIQMTQSPASQSASLGESVTITCLASQTIGTWLAWYQQKPGKSPQLLIYAATSLADGVPSRFSGSGSGTKFSLKISSLQAEDFVSYYCQQLYSIPLTIGAGTKLELK
notes: also called antibody of hybridoma KCLRF-BP-00221
In general, IC50 refers to the concentration that inhibits the measured activity by half. By Kd is commonly meant the free concentration of one partner at which half of the binding sites on the other are occupied at equilibrium, for simple one-to-one binding. Broadly, the koff is the first-order rate constant of dissociation. For orientation: kon means the rate constant with which the complex forms. B1: the IC50 in test [1] is 0.764 nM. Also, in test [2], the Kd came to 0.902 nM, the koff was 0.00178 s⁻¹ and the kon came out at 1.97e+06 M⁻¹ s⁻¹.

B2: Monoclonal antibody SAIT-Ang-2-6 (antibody, V domains shown)
VH: QVQLQQPGSELVRPGTSVKLSCKASGYTFTNYLMHWVKQRPGQGLEWIGNIYPGSGATNYDEKFKSKATLTVDISSSTAYMQLISLTSEDSAVYYCTRDDYDGSWFAYWGQGTLVTVSA
VL: DIVMTQSPSSLSVSAGEKVTMTCKSSQSLLISGNQKNFLAWYQQKPGQPPKLLIYGASTRDSGVPDRFTGSGSGTDFTLTISSVQAEDLAVYYCQNDHSYPLTFGTGTKLELK
notes: also called antibody of hybridoma KCLRF-BP-00222
As to B2, the IC50 in test [1] turned out to be 1.86 nM. In test [2], the Kd was found to be 1.27 nM, the koff turned out to be 0.00207 s⁻¹ and the on-rate constant (kon) is 1.64e+06 M⁻¹ s⁻¹.
